Results on 4 molecules are retold here after PMC3618304.

Test [1] deals with T1, Sec61-CPLV (S. cerevisiae).
T1 sequence (P32915 whole entry, looked up): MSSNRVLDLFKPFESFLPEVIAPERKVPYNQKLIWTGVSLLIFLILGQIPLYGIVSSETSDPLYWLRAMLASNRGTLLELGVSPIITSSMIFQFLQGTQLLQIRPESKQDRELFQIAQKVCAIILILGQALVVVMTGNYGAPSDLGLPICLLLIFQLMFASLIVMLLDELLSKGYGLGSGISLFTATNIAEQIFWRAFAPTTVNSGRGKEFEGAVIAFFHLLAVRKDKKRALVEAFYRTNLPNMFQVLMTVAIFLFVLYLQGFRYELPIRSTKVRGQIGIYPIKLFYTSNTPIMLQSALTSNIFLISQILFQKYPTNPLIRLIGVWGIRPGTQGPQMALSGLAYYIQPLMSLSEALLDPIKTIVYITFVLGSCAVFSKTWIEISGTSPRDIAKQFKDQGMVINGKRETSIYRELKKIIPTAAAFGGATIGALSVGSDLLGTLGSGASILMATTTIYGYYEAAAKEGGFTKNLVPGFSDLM
The test can be described thus: split reporter (BiFC, NanoBiT); split-ubiquitin, cleavage of PLV from the bait read by quantitative immunoblot of cell lysates with anti-PLV and 125I-Protein A; ratio of cleaved PLV to Arf1p. (In general: Immunoblotting shows a protein as a band on a membrane.)

Test [2] addresses T1, Sec61-CPLV (S. cerevisiae). The test can be described thus: two-hybrid; split-ubiquitin, liquid beta-galactosidase assay (ONPG) on cell lysates, 30°C for 180 min, mean of 6 samples.
In test [3] the target is T2, Ssh1-CPLV (S. cerevisiae).
T2 sequence (P38353 whole entry, looked up): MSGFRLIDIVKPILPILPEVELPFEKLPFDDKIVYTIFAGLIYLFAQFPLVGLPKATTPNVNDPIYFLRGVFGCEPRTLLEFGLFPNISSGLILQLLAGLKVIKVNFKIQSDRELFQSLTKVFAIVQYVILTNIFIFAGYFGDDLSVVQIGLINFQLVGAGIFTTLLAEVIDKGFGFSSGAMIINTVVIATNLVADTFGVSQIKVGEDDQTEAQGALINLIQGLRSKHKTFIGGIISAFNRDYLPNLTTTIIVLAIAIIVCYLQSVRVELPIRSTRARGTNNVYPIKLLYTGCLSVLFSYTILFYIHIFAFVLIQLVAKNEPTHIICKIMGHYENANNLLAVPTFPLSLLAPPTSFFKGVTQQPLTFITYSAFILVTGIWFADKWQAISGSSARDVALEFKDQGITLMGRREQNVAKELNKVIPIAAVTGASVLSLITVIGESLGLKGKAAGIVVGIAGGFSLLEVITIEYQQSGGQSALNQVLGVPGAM
The test is described as above.

In test [4] the target is T2, Ssh1-CPLV (S. cerevisiae). The test can be described thus: split reporter (BiFC, NanoBiT); split-ubiquitin, cleavage of PLV from the bait read by quantitative immunoblot of cell lysates with anti-PLV and 125I-Protein A; ratio of cleaved PLV to Arf1p.

B1: Nub-Sec62p (natural protein)
chain: MSAVGPGSNAGASVNGGSATAIATLLRNHKELKQRQGLFQAKQTDFFRYKRFVRALHSEEYANKSARQPEIYPTIPSNKIEDQLKSREIFIQLIKAQMVIPVKKLHSQECKEHGLKPSKDFPHLIVSNKAQLEADEYFVWNYNPRTYMDYLIVIGVVSIILALVCYPLWPRSMRRGSYYVSLGAFGILAGFFAVAILRLILYVLSLIVYKDVGGFWIFPNLFEDCGVLESFKPLYGFGEKDTYSYKKKLKRMKKKQAKRESNKKKAINEKAEQN
On to B1, for which the cleaved PLV relative to Arf1p (arbitrary units) in test [1] was determined as 6.6.

B2: Nub-Sbh1p (natural protein)
chain: MSSPTPPGGQRTLQKRKQGSSQKVAASAPKKNTNSNNSILKIYSDEATGLRVDPLVVLFLAVGFIFSVVALHVISKVAGKLF
Consider B2, for which the beta-galactosidase units came out at 9.8 U in test [2] and 0.43 U in test [3]. Besides, the cleaved PLV relative to Arf1p (arbitrary units) in test [1] came to 18; in test [4], 7.1.

B3: Nub-Sss1p (natural protein)
chain: MARASEKGEEKKQSNNQVEKLVEAPVEFVREGTQFLAKCKKPDLKEYTKIVKAVGIGFIAVGIIGYAIKLIHIPIRYVIV
On to B3, for which the results for the beta-galactosidase units in test [2] and in test [3] were 6 U and 0.55 U, respectively. Also, the cleaved PLV relative to Arf1p (arbitrary units) is 15 in test [1] and 7.1 in test [4].

B4: Nub-Sbh2p (natural protein)
chain: MAASVPPGGQRILQKRRQAQSIKEKQAKQTPTSTRQAGYGGSSSSILKLYTDEANGFRVDSLVVLFLSVGFIFSVIALHLLTKFTHII
Consider B4, for which the values for the beta-galactosidase units in test [2] and in test [3] were 0.28 U and 0.45 U, respectively. In addition, the cleaved PLV relative to Arf1p (arbitrary units) in test [1] stood at 9.6; in test [4] it was 7.2.
